Assay results published in publication PMC11220700, “Activation and Purification of ß‐Glucocerebrosidase by Exploiting its Transporter LIMP‐2 – Implications for Novel Treatment Strategies in Gaucher's and Parkinson's Disease” (Advanced Science, 2024).

System: wt GCase in HEK 293F supernatant
Assay: GCase activity in supernatant of HEK 293F cells co‐expressing soluble LIMP‐2
Type: cell-based, human
Conditions: co‐expression with wt GCase, 0‐72 h after transfection, n = 3
Description: HEK 293F cells (ThermoFisher Scientific Inc., Waltham, MA, United States, #R79007) were cultivated in FreeStyle 293 expression medium (ThermoFisher Scientific Inc., Waltham, MA, United States, #12 338 018) in vented flat‐bottom Erlenmeyer flasks (ThermoFisher Scientific Inc., Waltham, MA, United States, #4115‐0125, #4115‐0250, #4115‐0500, #4115‐1000, #4115‐2000) on a MaxQ CO2 Plus orbital shaker (ThermoFisher Scientific Inc., Waltham, MA, United States, #88 881 102) at 125 rpm, 37 °C and 8% CO2. Regularly, the cell count was determined using a Cellometer Auto T4 Plus cell counter (Nexcelom Biocience LLC, Lawrence, Massachusetts, United States). […] For seeding, cells were counted and the desired cell number was transferred to 50 mL tubes. […]
Activity of GCase‐containing samples (recombinant protein, cell lysate, LE fractions, conditioned culture medium) was measured using the synthetic substrate 4‐methylumbelliferyl‐β‐D‐glucopyranoside (4MU, Merck Millipore, Billerica, MA, United States, #M3633). […] GCase activity was quantified via fluorescence of released 4‐methylumbelliferone (endpoint measurement) using an Infinite 200 Pro (TECAN, Männedorf, Switzerland), SpectraMax Gemini (Molecular Devices, San José, CA, United States) or ClarioStar (BMG LABTECH, Ortenberg, Germany) multiplate reader (λ ex: 365 nm; λ em: 445 nm). […]

B1: sLIMP‐2: secreted LIMP‐2 ectodomain, amino acids 36–431, N‐terminal IgK leader sequence, C‐terminal TEV‐cleavable 10xHis tag (protein)
chain: SIEKKIVLRNGTEAFDSWEKPPLPVYTQFYFFNVTNPEEILRGETPRVEEVGPYTYRELRNKANIQFGDNGTTISAVSNKAYVFERDQSVGDPKIDLIRTLNIPVLTVIEWSQVHFLREIIEAMLKAYQQKLFVTHTVDELLWGYKDEILSLIHVFRPDISPYFGLFYEKNGTNDGDYVFLTGEDSYLNFTKIVEWNGKTSLDWWITDKCNMINGTDGDSFHPLITKDEVLYVFPSDFCRSVYITFSDYESVQGLPAFRYKVPAEILANTSDNAGFCIPEGNCLGSGVLNVSICKNGAPIIMSFPHFYQADERFVSAIEGMHPNQEDHETFVDINPLTGIILKAAKRFQINIYVKKLDDFVETGDIRTMVFPVMYLNESVHIDKETASRLKSMINT
modifications: left off: Igκ leader sequence, N-terminal, state not stated | 10xHis (TEV-cleavable), C-terminal, kept
- GCase activity in supernatant over time: GCase activity is higher and stable over the course of the measurements
